# In US20210355235A1, “Compositions and Methods For Treating Cancer with Anti-Renalase antibodies and Anti-PD1 antibodies” (YALE UNIVERSITY, priority 2017, published 2021):
# “Also recorded” adds a separate entry of the source. Like-named read-outs stand apart in the source and are kept apart here.
# Columns and labels:
# [1] = test system: melanoma cell lines; test: melanoma cells in culture, viability / growth; assay type: cell-based, human
# Procedure: Total cell number and percentage of live cells were assessed by trypan blue exclusion, and cells were counted using a BioRad TC10 automated cell counter. For additional studies, cell viability was determined using WST-1 reagent (Roche Diagnostics, Indianapolis, Ind., USA) according to the manufacturers' instruction. Absorbances were read using a microplate reader (Power Waves XS, BioTek Instruments, Winooski, Vt., USA).
# [2] = test system: PDACC (pancreatic ductal adenocarcinoma cells); test: PDACC viability with anti-RNLS antibodies, WST-1; assay type: cell-based, human; details: 72 hrs
# Procedure: FIG. 25, comprising FIGS. 25A through 25E, is a series of charts and images showing that inhibition of RNLS signaling is cytotoxic to cancer cells in vitro and in vivo. FIG. 25A is a chart showing relative cell viability following transient transfection of Panc1 cells using a RNLS-specific siRNA, or a non-specific control siRNA, and cell viability assayed 96 h later using the WST-1 reagent; n=6, ** indicates p<0.001. FIG. 25B is a chart showing relative cell viability when cells were treated with indicated antibodies for 72 hrs and cell viability determined using WST-1; m28-RNLS and m37-RNLS: monoclonal antibodies raised against RNLS peptide RP220, ab31291: Abcam polyclonal antibody raised against a partial sequence of RP-220; n=6, * indicates p<0.005. […] FIG. 25D is a chart showing tumor volume increase after athymic nude mice received subcutaneous injection of Panc1 cells transduced with RNLS shRNA (sh-RNLS) or control (sh-Control); tumor volume measured every […] for up to 30 days, n=6 each; * indicates p<0.05. FIG. 25E is chart showing tumor volume increase after nude mice were xenografted with BxPC3; tumor volume measured prior to treatment every 3-4 days with 2 mg/kg of either rabbit IgG as a negative control or with m28-RNLS, n=10, * indicates p<0.05.
# Cell viability was assessed by trypan blue exclusion, and cells were counted using a BioRad TC10 automated counter.
# [3] = test system: Panc1 cells; test: western blot of p38 and STAT3 phosphorylation; assay type: cell-based, human
# Excerpt: FIG. 27, comprising FIGS. 27A through 27E, is a series of images and charts showing the interaction between RNLS and STAT3, and the mechanistic model of inhibition by m28-RNLS. FIG. 27A is an image showing activation of STAT3 by RNLS in Panc1 cells; Panc1 cells in culture treated with either BSA or RNLS, and STAT3 phosphorylation assessed by western blot; p-Ser^727-STAT3: phosphorylation at serine 727, p-Y^705-STAT3: phosphorylation at tyrosine 705; representative study. FIG. 27B is a chart depicting the quantification of STAT3 phosphorylation with RNLS; signals normalized to total STAT3; n=3, *=P<0.05. […] FIG. 27D is a chart showing the quantification of STAT3 phosphorylation with m28-RNLS; signals normalized to GAPDH loading control; n=3, *=P<0.05. FIG. 27E depicts the proposed mechanistic model for antitumor activity of m28-RNLS.
# [4] = test system: BxPC3 xenografted tumors; test: BxPC3 pancreatic xenograft in athymic nude mice; assay type: in vivo, mouse
# Procedure: Immunohistochemistry was performed as described previously (Guo et al., 2012 Cancer Science. 103(8):1474-80). Briefly tumor tissues were formalin-fixed, paraffin-embedded and cut into 5-m sections on glass slides. The slides were de-paraffinized and hydrated, followed by antigen retrieval in a pressure cooker containing 10 mM sodium citrate, pH6 buffer. The sections were blocked in 3% hydrogen peroxide for 30 min and 2.5% normal horse serum in PBS/0.1% Tween20 for 1 h followed by incubation with primary antibody and isotype control IgG overnight at 4° C. The following antibodies were used in this study: m28-RNLS at 500 ng/ml; goat polyclonal anti-RNLS at 250 ng/ml (Abcam, AB31291); rabbit monoclonal anti Ki67 (Vector Lab, VP-RM04, 1:100); rabbit monoclonal anti p21 and phspho-Tyr^705-Stat3 (Cell Signaling Technologies, #2947, 1:100 and #9145, 1:400, respectively). ImmPRESS peroxidase-anti-rabbit IgG (Vector Laboratories, Burlingame, Calif., USA) was used to detect primary antibodies. The color was developed using a Vector DAB substrate kit and counterstained with hematoxylin (Vector Laboratories). Slides were observed and photographed using an Olympus BX41 microscope and camera (Olympus America Inc, Center Valley, Pa., USA).
# Female athymic, 18-20 g nude mice (nu/nu) were obtained from Charles River (Willimantic, Conn.) and housed in microisolator cages, with autoclaved bedding in a specific pathogen-free facility, with a 12-h light/dark cycle.
# Xenograft tumors were established by subcutaneous injection of BxPC3 cells (2×10^6 in 100 μl of PBS, pH 7.6). When the tumors reached a volume of 50-100 mm^3, the mice were divided a control group (n=14 treated with rabbit IgG, 40 μg by intraperitoneal injection (IP)), and an experimental group (n=14) that received m28-RNLS (40 μg IP, every 3 days). Tumor size was measured with digital calipers and volume was calculated according to the formula (length×width^2)×π/2. In another group of animals (n=6 each) sh-RNLS or sh-Control Panc1 cells (2×10^6 in 100 μl of PBS, pH 7.6) were injected subcutaneously. These animals received no further treatments, and tumor size and volume were measured for up to 30 days.
# At the end of the study, the mice were sacrificed, the tumors were excised and immediately snap-frozen in liquid nitrogen and stored at −80° C. Apoptosis was examined using the TUNEL assay (Roche in situ Apoptosis Detection System), according to the manufacturer's instructions. Sections were examined by light microscopy and the apoptosis index was determined by counting ≥1000 cells in 5 randomly selected high-power fields (×200 magnification).
molecule,measurement,setting,value
"m28-RNLS: rabbit anti-renalase monoclonal raised against RNLS peptide RP-220; heavy chain SEQ ID NO:9, light chain SEQ ID NO:10 (antibody, 1D-28-4 full length heavy chain amino acid; 1D-28-4 full length light chain amino acid) heavy: METGLRWLLLVAVLKGVQCQSVEESGGRLVTPGTPLTLTCTVSGFSLSSFAVGWVRQAPGKGLEYIGIISSVGITRYASWAAGRFTISKTSTTVDLKITSPTTEDTATYFCARYGYSGDVNRLDLWGQGTLVTVSSGQPKAPSVFPLAPCCGDTPSSTVTLGCLVKGYLPEPVTVTWNSGTLTNGVRTFPSVRQSSGLYSLSSVVSVTSSSQPVTCNVAHPATNTKVDKTVAPSTCSKPTCPPPELLGGPSVFIFPPKPKDTLMISRTPEVTCVVVDVSQDDPEVQFTWYINNEQVRTARPPLREQQFNSTIRVVSTLPIAHQDWLRGKEFKCKVHNKALPAPIEKTISKARGQPLEPKVYTMGPPREELSSRSVSLTCMINGFYPSDISVEWEKNGKAEDNYKTTPAVLDSDGSYFLYSKLSVPTSEWQRGDVFTCSVMHEALHNHYTQKSISRSPGK light: MDTRAPTQLLGLLLLWLPGATFAQVLTQTASPVSAAVGGTVTINCQASQSVYDNNNLAWYQQKPGQPPKQLIYGASTLASGVSSRFKGSGSGTQFTLTISGVQCDDAATYYCLGEFSCSSADCFAFGGGTEVVVKGDPVAPTVLIFPPSADLVATGTVTIVCVANKYFPDVTVTWEVDGTTQTTGIENSKTPQNSADCTYNLSSTLTLTSTQYNSHKEYTCKVTQGTTSVVQSFNRGDC",melanoma cell viability / growth in culture,[1],decreased the viability of all (total of 5) melanoma cell lines tested
same,melanoma cell viability / growth in culture,[1]; listed as 1D-28-4,inhibits melanoma cells in culture
same,PDACC growth / viability,[2],inhibitory effects
same,p38 MAPK phosphorylation,[3]; beginning at day 1 post treatment,sustained phosphorylation
same,STAT3 phosphorylation (p-Y705-STAT3) after antibody,[3]; up to 4 days,long-lasting and sustained decrease; also recorded: inhibits STAT3 phosphorylation
same,decrease in Ki67 expression vs IgG,"[4]; mouse, in vivo",2.5 fold
same,increase in apoptosis (TUNEL staining) vs IgG,"[4]; mouse, in vivo",~2 fold
same,increase in p21 expression vs IgG,"[4]; mouse, in vivo",~4 fold
same,p21 positive cells,[4]; n=14,178.1 ± 11.4 positive cells/high power field
same,TUNEL positive cells (apoptosis),"[4]; n=14, IgG 14.8±2.3",28.4±3.3 positive cells/high power field
same,Ki67 positive cells,"[4]; n=14, IgG 340.2±11.9",137.1±14.9 positive cells/high power field
same,tumor volume,"[4]; vs rabbit IgG, up to 3 weeks, 40 μg IP every 3 days",inhibited PDAC growth; also recorded: significant decrease in tumor volume
